Target: human IL-12 receptor (b1 and b2 chain) (human) (UniProt P42701)
Experiment: cell-based or functional assay

Chain of Human recombinant IL-12 (P29460 23-328 limits assumed): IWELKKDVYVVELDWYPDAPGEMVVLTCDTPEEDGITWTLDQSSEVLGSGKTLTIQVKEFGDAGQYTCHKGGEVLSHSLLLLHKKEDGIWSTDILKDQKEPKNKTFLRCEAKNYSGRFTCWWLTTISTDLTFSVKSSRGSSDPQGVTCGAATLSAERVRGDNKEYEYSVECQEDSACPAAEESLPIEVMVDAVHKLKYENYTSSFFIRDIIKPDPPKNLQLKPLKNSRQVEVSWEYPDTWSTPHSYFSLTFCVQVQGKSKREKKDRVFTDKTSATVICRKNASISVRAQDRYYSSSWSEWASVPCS
Chain of Human recombinant IL-12 (P29459 23-219 limits assumed): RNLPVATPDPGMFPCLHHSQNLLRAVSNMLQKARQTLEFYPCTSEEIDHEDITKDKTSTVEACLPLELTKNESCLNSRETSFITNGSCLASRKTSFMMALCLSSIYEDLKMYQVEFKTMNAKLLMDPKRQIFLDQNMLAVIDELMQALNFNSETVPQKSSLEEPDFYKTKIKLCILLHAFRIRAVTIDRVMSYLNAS
Chain of human IL-12 receptor (b1 and b2 chain) (human) (Q99665 24-862, chain 2 of 2, other chains not shown): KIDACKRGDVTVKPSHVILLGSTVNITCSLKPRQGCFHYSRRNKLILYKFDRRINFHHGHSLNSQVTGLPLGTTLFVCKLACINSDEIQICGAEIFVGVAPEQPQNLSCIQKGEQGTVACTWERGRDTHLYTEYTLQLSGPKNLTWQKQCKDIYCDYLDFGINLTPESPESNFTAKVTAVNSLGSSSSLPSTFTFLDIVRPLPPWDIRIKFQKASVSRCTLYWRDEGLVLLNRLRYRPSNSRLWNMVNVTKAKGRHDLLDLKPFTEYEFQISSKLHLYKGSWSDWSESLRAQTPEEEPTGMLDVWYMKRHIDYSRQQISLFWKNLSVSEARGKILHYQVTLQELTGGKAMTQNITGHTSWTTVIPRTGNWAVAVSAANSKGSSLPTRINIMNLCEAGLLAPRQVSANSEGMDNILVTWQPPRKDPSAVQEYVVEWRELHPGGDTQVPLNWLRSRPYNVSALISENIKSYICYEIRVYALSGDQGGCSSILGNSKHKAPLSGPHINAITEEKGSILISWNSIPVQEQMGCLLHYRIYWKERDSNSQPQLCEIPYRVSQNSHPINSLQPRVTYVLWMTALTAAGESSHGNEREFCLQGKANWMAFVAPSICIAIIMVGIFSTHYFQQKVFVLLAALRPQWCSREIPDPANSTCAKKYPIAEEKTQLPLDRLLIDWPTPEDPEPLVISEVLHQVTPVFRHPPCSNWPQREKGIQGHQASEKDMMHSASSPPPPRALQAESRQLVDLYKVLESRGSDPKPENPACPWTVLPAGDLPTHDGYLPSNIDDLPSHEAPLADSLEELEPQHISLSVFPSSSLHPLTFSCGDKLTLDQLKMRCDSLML

- E-max (Maximal response), p-STAT4 positive cells, CD8+ T cells and NK cells: 60 to 80%
- EC50 of p-STAT4 induction in human PBMC, CD4+ T cells: 0.072 nM
- EC50 of p-STAT4 induction in human PBMC, CD8+ T cells: 0.045 nM
- EC50 of p-STAT4 induction in human PBMC, NK cells: 0.166 nM
Substance: Human recombinant IL-12 (from UniProt P29460 23-328; P29459 23-219) (ligand)

Reference: US20250051413A1
